Data as given in the RNAGym collection of RNA variant scans (doi:10.1093/molbev/msab373).

B1: Azoarcus group I ribozyme (parent)
chain: GUGCCUUGCGCCGGGAAACCACGCAAGGGAUGGUGUCAAAUUCGGCGAAACCUAAGCGCCCGCCCGGGCGUAUGGCAACGCCGAGCCAAGCUUCGGCGCCUGCGCCGAUGAAGGUGUAGAGACUAGACGGCACCCACCUAAGGCAAACGCUAUGGUGAAGGCAUAGUCCAGGGAGUGGCGAAAGUCACACAAACCGG

Variants of: B1
Experiment: reverse-splicing fitness (ratio to wild type); higher = more active; in vitro selection; Mg2+ level not given
Method in brief: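 An in vitro group I ribozyme library with randomized positions was T7-transcribed and gel-purified. In triplicate, 10 pmol RNA in EPPS pH 7.5 was reacted with 50 pmoles of a 30-nt RNA substrate for 1 h at 37 °C across several added MgCl2 levels (1–48 mM), then stopped with EDTA. Products were reverse transcribed from a substrate-complementary primer, PCR-amplified and sequenced (HiSeq 4000). Fitness is a variant's read proportion after selection over that before, normalised to wild type.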

Variant	reverse-splicing fitness
GUGCCUUGCGCCGGGAAACCACGCAAGGGAUGGUGUCAAAUUCGGCGAAACCUAAGCGCCCGCCCGGGCGUAUGGCAACGCAGAGCCAAGCUUCGGCGCCUGCGCCGAUGUAGGUGUAGGGACUAGACGGCACCCACCUAAGGCCAACGCUAUGGUGAAGGCAUAGUCAAGGGAGCGGCGAAAGUCACACAAACCGG [C82A A111U A120G A145C C169A U176C]	0.00818
GUGCCUUGCGCCGGGAAACCACGCAAGGGAUGGUGUCAAAUUCGGCGAAACCUAAGCGCCCGCCCGGGCGUAUGGCAACGCAGAGCCAAGCUUCGGCGCCUGCGCCGAUGUAGGUGUAGGGACUAGACGGCACCCACCUAAGGCCAACGCUAUGGUGAAGGCAUAGUCAAGGGAGAGGCGAAAGUCACACAAACCGG [C82A A111U A120G A145C C169A U176A]	0.0141
GUGCCUUGCGCCGGGAAACCACGCAAGGGAUGGUGUCAAAUUCGGCGAAACCUAAGCGCCCGCCCGGGCGUAUGGCAACGCAGAGCCAAGCUUCGGCGCCUGCGCCGAUGUAGGUGUAGGGACUAGACGGCACCCACCUAAGGCCAACGCUAUGGUGAAGGCAUAGUCAAGGGAGGGGCGAAAGUCACACAAACCGG [C82A A111U A120G A145C C169A U176G]	0.0048
GUGCCUUGCGCCGGGAAACCACGCAAGGGAUGGUGUCAAAUUCGGCGAAACCUAAGCGCCCGCCCGGGCGUAUGGCAACGCAGAGCCAAGCUUCGGCGCCUGCGCCGAUGUAGGUGUAGGGACUAGACGGCACCCACCUAAGGCGAACGAUAUGGUGAAGGCAUAGUCAAGGGAGUGGCGAAAGUCACACAAACCGG [C82A A111U A120G A145G C150A C169A]	0.0112
GUGCCUUGCGCCGGGAAACCACGCAAGGGAUGGUGUCAAAUUCGGCGAAACCUAAGCGCCCGCCCGGGCGUAUGGCAACGCAGAGCCAAGCUUCGGCGCCUGCGCCGAUGUAGGUGUAGGGACUAGACGGCACCCACCUAAGGCGAACGAUAUGGUGAAGGCAUAGUCGAGGGAGUGGCGAAAGUCACACAAACCGG [C82A A111U A120G A145G C150A C169G]	0.00912
GUGCCUUGCGCCGGGAAACCACGCAAGGGAUGGUGUCAAAUUCGGCGAAACCUAAGCGCCCGCCCGGGCGUAUGGCAACGCAGAGCCAAGCUUCGGCGCCUGCGCCGAUGUAGGUGUAGGGACUAGACGGCACCCACCUAAGGCCAACGCUAUGGUGAAGGCAUAGUCAAGGGAGUGGCGAAAGUCACACAAACCGG [C82A A111U A120G A145C C169A]	0.0074
GUGCCUUGCGCCGGGAAACCACGCAAGGGAUGGUGUCAAAUUCGGCGAAACCUAAGCGCCCGCCCGGGCGUAUGGCAACGCAGAGCCAAGCUUCGGCGCCUGCGCCGAUGUAGGUGUAGGGACUAGACGGCACCCACCUAAGGCCAACGCUAUGGUGAAGGCAUAGUCUAGGGAGUGGCGAAAGUCACACAAACCGG [C82A A111U A120G A145C C169U]	0.00838
GUGCCUUGCGCCGGGAAACCACGCAAGGGAUGGUGUCAAAUUCGGCGAAACCUAAGCGCCCGCCCGGGCGUAUGGCAACGCAGAGCCAAGCUUCGGCGCCUGCGCCGAUGUAGGUGUAGGGACUAGACGGCACCCACCUAAGGCCAACGCUAUGGUGAAGGCAUAGUCGAGGGAGUGGCGAAAGUCACACAAACCGG [C82A A111U A120G A145C C169G]	0.0105
GUGCCUUGCGCCGGGAAACCACGCAAGGGAUGGUGUCAAAUUCGGCGAAACCUAAGCGCCCGCCCGGGCGUAUGGCAACGCAGAGCCAAGCUUCGGCGCCUGCGCCGAUGUAGGUGUAGGGACUAGACGGCACCCACCUAAGGCGAACGCUAUGGUGAAGGCAUAGUCCAGGGAGUGGCGAAAGUCACACAAACCGG [C82A A111U A120G A145G]	0.0152
GUGCCUUGCGCCGGGAAACCACGCAAGGGAUGGUGUCAAAUUCGGCGAAACCUAAGCGCCCGCCCGGGCGUAUGGCAACGCAGAGCCAAGCUUCGGCGCCUGCGCCGAUGUAGGUGUAGGGACUAGACGGCACCCACCUAAGGCCAACGUUAUGGUGAAGGCAUAGUCCAGGGAGGGGCGAAAGUCACACAAACCGG [C82A A111U A120G A145C C150U U176G]	0.00589
GUGCCUUGCGCCGGGAAACCACGCAAGGGAUGGUGUCAAAUUCGGCGAAACCUAAGCGCCCGCCCGGGCGUAUGGCAACGCAGAGCCAAGCUUCGGCGCCUGCGCCGAUGUAGGUGUAGGGACUAGACGGCACCCACCUAAGGCCAACGUUAUGGUGAAGGCAUAGUCCAGGGAGCGGCGAAAGUCACACAAACCGG [C82A A111U A120G A145C C150U U176C]	0.0114
GUGCCUUGCGCCGGGAAACCACGCAAGGGAUGGUGUCAAAUUCGGCGAAACCUAAGCGCCCGCCCGGGCGUAUGGCAACGCAGAGCCAAGCUUCGGCGCCUGCGCCGAUGUAGGUGUAGGGACUAGACGGCACCCACCUAAGGCCAACGUUAUGGUGAAGGCAUAGUCCAGGGAGAGGCGAAAGUCACACAAACCGG [C82A A111U A120G A145C C150U U176A]	0.0105
GUGCCUUGCGCCGGGAAACCACGCAAGGGAUGGUGUCAAAUUCGGCGAAACCUAAGCGCCCGCCCGGGCGUAUGGCAACGCAGAGCCAAGCUUCGGCGCCUGCGCCGAUGUAGGUGUAGGGACUAGACGGCACCCACCUAAGGCGAACGAUAUGGUGAAGGCAUAGUCCAGGGAGUGGCGAAAGUCACACAAACCGG [C82A A111U A120G A145G C150A]	0.0095
GUGCCUUGCGCCGGGAAACCACGCAAGGGAUGGUGUCAAAUUCGGCGAAACCUAAGCGCCCGCCCGGGCGUAUGGCAACGCAGAGCCAAGCUUCGGCGCCUGCGCCGAUGUAGGUGUAGGGACUAGACGGCACCCACCUAAGGCCAACGCUAUGGUGAAGGCAUAGUCGAGGGAGCGGCGAAAGUCACACAAACCGG [C82A A111U A120G A145C C169G U176C]	0.0184
GUGCCUUGCGCCGGGAAACCACGCAAGGGAUGGUGUCAAAUUCGGCGAAACCUAAGCGCCCGCCCGGGCGUAUGGCAACGCAGAGCCAAGCUUCGGCGCCUGCGCCGAUGUAGGUGUAGGGACUAGACGGCACCCACCUAAGGCCAACGCUAUGGUGAAGGCAUAGUCGAGGGAGAGGCGAAAGUCACACAAACCGG [C82A A111U A120G A145C C169G U176A]	0.0247
